According to patent US6022855A, “Methods and reagents for inhibiting furin endoprotease” (Oregan Health Sciences University, priority 1995, dated 2000):
Changes are numbered by the printed parent chain.

B1: α1 -NAT: native α1-antitrypsin, naturally-occurring protease inhibitor (-Ala-Ile-Pro-Met- at positions 355-358) (protein)
chain: EDPQGDAAQKTDTSHHDQDHPTFNKITPNLAEFAFSLYRQLAHQSNSTNIFFSPVSIATAFAMLSLGTKADTHDEILEGLNFNLTQIPEAQIHEGFQELLRTLNQPDSQLQLTTGNGLFLSQGLKLVDKFLEDVKKLYHSEAFTVNFGDTEQAKKQINDYVEKGTQGKIVDLVKELDRDTVFALVNYIFFKGKWERPFEVKDTEEEDFHVDQVTTVKVPMMKRLGMFNIQHCKKLSSWVLLMKYLGNATAIFFLPDEGKLQHLENELTHDIITKFLENEDRRSASLHLPKLSITGTYDLKSVLGQLGITKVFSNGADLSGVTEEAPLKLSKAVHKAVLTIDEKGTEAAGAMFLEAIPMSIPPEVKFNKPFVFLMIEQNTKSPLFMGKVVNPTGK
B2: α1 -PIT: naturally-occurring variant α1-antitrypsin Pittsburgh, Met358→Arg358 mutation (Ala355-Ile-Pro-Arg358) (protein)
chain: B1 chain with M358R

How the values were obtained:
[1] = molecular target: elastase
[2] = molecular target: thrombin
[3] = molecular target: furin endoprotease endogenous to BSC-40 cells
[4] = system: Human furin; assay type: biochemical; conditions: for percent endoprotease activity in presence of each serpin (Furin): relative concentration of serpin inhibitor 100; for inhibition of furin endoprotease activity (FIG. 2, in words): serpin 10 μg/mL, 20 min 37° C. pre-incubation, substrate 50 μM
[5] = system: elastase; assay type: biochemical; conditions: relative concentration of serpin inhibitor 100
[6] = system: furin-mediated processing of pro-β-NGF in BSC-40 cells; assay type: cell-based, African green monkey
[7] = system: furin-mediated processing of HIV-1 gp160 in BSC-40 cells; assay type: cell-based, African green monkey
[8] = system: syncytium formation IP/IR cells / CD4+ HeLa cells; assay type: cell-based, human; conditions: serpin co-expressed with gp160 in IP/IR cells
[9] = system: thrombin; assay type: biochemical

| Molecule | percent endoprotease activity in presence of each serpin [1] [%] | percent endoprotease activity in presence of each serpin [2] [%] | percent of pro-β-NGF processed in VV:mNGF-infected BSC-40 cells with α1 -PDX protein in the medium (densitometry) (% processed at 50 µg/mL) [3] | percent endoprotease activity in presence of each serpin (Furin) [4] [%] | inhibition of furin endoprotease activity (FIG. 2, in words) [4] | percent endoprotease activity in presence of each serpin (Elastase) [5] [%] | forms of β-NGF secreted by co-infected cells (FIG. 3) [6] | gp160 processing products in co-infected cells (FIG. 4) [7] | effect on gp41-mediated syncytia formation (FIGS. 6D-6F) [8] | inhibition of thrombin endoprotease activity (FIG. 2, in words) ([9]; FIG. 2) | percent endoprotease activity in presence of each serpin (Thrombin) ([9]; relative concentration of serpin inhibitor 100) [%] |
| --- | --- | --- | --- | --- | --- | --- | --- | --- | --- | --- | --- |
| α1 -antitrypsin Portland | 101 | 95 | 10 | – | – | – | – | – | – | – | – |
| α1 -antitrypsin Pittsburgh | 98 | 8 | – | – | – | – | – | – | – | – | – |
| native α1 -antitrypsin | 13 | – | – | – | – | – | – | – | – | – | – |
| B1 | – | – | – | 101 | unable to inhibit | 13 | produced both the processed and unprocessed forms of β-NGF | produced both unprocessed gp160 and processed gp120 and gp41 | had no effect on syncytia formation | – | – |
| B2 | – | – | – | 97 | not furin | 98 | produced both the processed and unprocessed forms of β-NGF | produced both unprocessed gp160 and processed gp120 and gp41 | had no effect on syncytia formation | specifically inhibited | 8 |
